Experimental data from patent US20020151522A1, “Regulation of weight” (priority 2001, published 2002).
Read-outs that look alike come from different tables or passages of the source.

B1: BDNF: brain-derived neurotrophic factor (protein, UniProt P23560 19-247, looked up)
Neurotrophic factor BDNF …: APMKEANIRGQGGLAYPGVRTHGTLESVNGPKAGSRGLTSLADTFEHVIEELLDEDQKVRPNEENNKDADLYTSRVMLSSQVPLEPPLLFLLEEYKNYLDAANMSMRVRRHSDPARRGELSVCDSISEWVTAADKKTAVDMSGGTVTVLEKVPVSKGQLKQYFYETKCNPMGYTKEGCRGIDKRHWNSQCRTTQSYVRALTMDSKKRIGWRFIRIDTSCVCTLTIKRGR
B2: GDNF: glial-derived neurotrophic factor (protein, UniProt P39905 78-211, looked up)
Glial cell line-derived …: SPDKQMAVLPRRERNRQAAAANPENSRGKGRRGQRGKNRGCVLTAIHLNVTDLGLGYETKEELIFRYCSGSCDAAETTYDKILKNLSRNRRLVSDKVGQACCRPIAFDDDLSFLDDNLVYHILRKHSAKRCGCI

Experiments:
[1] = infused in the brain of adult rats with partial or full lesions, e.g. partial fimbria-fornix transection; cited from earlier work
[2] = Body weight gain over 14 days after unilateral fimbria-fornix lesion with daily intracerebroventricular infusion; type: in vivo, rat; details: male Wistar rats, fimbria-fornix lesion/cannulation; icv 2 μL daily for 14 days; GPE 3 μg/day, IGF-I 20 μg/day, NGF 1 μg/day
Description: A group of male Wistar rats weighing 174-193 g (University of Auckland, Animal Resources Unit) were divided randomly into the following groups: “control”, “sham”, “vehicle”, “GPE”, “IGF-I”, and “NGF”, depending on the treatment each animal was to undergo. “Control” animals were weighed at the first and last time points and were not treated or handled at any other time. “Sham” animals underwent a sham surgery of anesthesia, incision through the scalp skin, drill hole through the skull, bone wax to seal the drill hole, and sutures for the skin incision. They were then handled daily in mock infusions to mimic handling of animals that received lesions and intracerebroventricular infusions.
“Vehicle”, “GPE”, “IGF-I”, and “NGF” animals were anaesthetized with 75 mg/Kg sodium pentobarbital and positioned in a stereotaxic apparatus (Kopf Instruments, USA), and underwent unilateral fimbria-fomix lesions to lesion septal cholinergic neurons and chronic cannula implantation into the left lateral cerebral ventricle. Fomix-fimbria lesions were performed by transecting the fimbria-fornix projection using a specialized retractable wire Scouten knife (Kopf Instruments) designed to minimize tissue damage except at the required lesion site. Anaesthetized animals received an incision through their scalp skin and a small drill hole was made in the skull at the stereotaxic coordinates anterior-posterior (AP) axis −1.0 mm from the bregma and medial-lateral (ML) axis +2.5 mm from midline (left side), from an atlas of the rat brain (Paxinos et al. (1986), “The rat brain in stereotaxic coordinates”, Academic Press, London). The knife was lowered into the brain through the drill hole to the coordinate +6.0 mm ventral to the skull on the dorsal-ventral (DV) axis. The knife blade was then extended 2.5 mm toward midline at an angle of 30° caudal to the bregma. The knife, with blade extended, was then raised 4.5 mm dorsally to axotomize the fimbriafomix fibres. The blade was then retracted, the knife lowered 4.5 mm to its original coordinate, and the process was repeated. […]

[3] = Weight gain in human patient suffering from a head injury, central administration for 14 days; type: in vivo
Experimental: GPE in a dose of 10 μg/Kg/day is administered via lateral cerebroventricular injection into the brain of a human patient suffering from a head injury to promote weight gain to normal levels. Alternatively, a GPE analog is administered. Treatment is commenced as soon as possible after the head injury and then for 14 days thereafter.
A GPE analog in a dose of 20 μg/Kg/day is administered via focal injection into the lateral cerebral ventricle of a human patient suffering from a head injury to promote weight gain to normal levels. Alternatively, GPE is administered. Treatment is commenced as soon as possible after the head injury and then for 14 days thereafter.
GPE in a dose of 5 μg/Kg/day is administered via a surgically inserted shunt into the lateral cerebral ventricle of a human patient suffering from a head injury to promote weight gain to normal levels. Alternatively, a GPE analog is administered. Treatment is commenced as soon as possible after the head injury and then for 14 days thereafter.

[4] = intravenous, humans after moderate to severe head injury; cited from earlier work
[5] = administered into the brain, adult rats after transient forebrain ischemia; cited from earlier work
[6] = intracerebroventricular, patients with Alzheimer's disease; cited from earlier work
[7] = administered to the brain of normal, unlesioned rats; cited from earlier work

Molecule | effect on body weight [1] | weight gain over the 14 days [2] | effect on body weight [7] | further results
bFGF: basic fibroblast growth factor | either decrease normal body weight gain or cause weight loss |  |  | 
NCC(=O)N1CCC[C@H]1C(=O)N[C@@H](CCC(=O)O)C(=O)O [GPE, glycyl-L-prolyl-L-glutamic acid] |  | the normally expected weight gain occurred |  | weight gain in the patient ([3]; 5 μg/Kg/day via surgically inserted shunt into the lateral cerebral ventricle): Normal weight gain is promoted; weight gain in the patient ([3]; 10 μg/Kg/day via lateral cerebroventricular injection): Normal weight gain is promoted; weight gain in the patient ([3]; 20 μg/Kg/day via focal injection into the lateral cerebral ventricle): Normal weight gain is promoted
IGF-I: insulin-like growth factor I |  | minimal weight gain |  | effect on body weight [4]: cause weight gain; effect on body weight [5]: cause weight gain
NGF: Nerve growth factor | either decrease normal body weight gain or cause weight loss | no weight gain | cause weight loss | effect on body weight [6]: marked weight reduction
B1 | either decrease normal body weight gain or cause weight loss |  | cause weight loss | 
B2 | either decrease normal body weight gain or cause weight loss |  | cause weight loss | 
